Data published in patent publication US20170015742A1 (published 2017).

Columns and labels:
[1] = biological target: T1, PDGF-BB (human, UniProt P01127 82-190, limits assumed); assay: Biacore SPR; DVD-Ig captured on anti-human Fc, antigen injected
T1 construct: also called human PDGF-BB; hPDGF-BB
Procedure, shortened: (§1)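 Antibodies or DVD-Ig molecules (1 μg/ml) were captured on an anti-human Fc CM5 surface, with antigen injected in solution and responses referenced to the capture-only surface. Rate constants came from a global 1:1 Langmuir fit, and KD = koff/kon.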

[2] = biological target: T2, VEGF-A (human, UniProt P15692 207-395); assay: as above
T2 construct: also called hVEGF165
T2 sequence (P15692 other isoform, or with tags, fused parts or gaps limits assumed): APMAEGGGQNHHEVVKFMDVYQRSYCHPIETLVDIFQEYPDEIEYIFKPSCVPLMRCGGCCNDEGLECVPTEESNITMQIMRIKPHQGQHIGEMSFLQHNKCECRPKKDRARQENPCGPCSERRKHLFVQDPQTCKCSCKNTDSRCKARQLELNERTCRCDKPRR
Procedure, shortened: as §1

T1 sequence (P01127 82-190 limits assumed): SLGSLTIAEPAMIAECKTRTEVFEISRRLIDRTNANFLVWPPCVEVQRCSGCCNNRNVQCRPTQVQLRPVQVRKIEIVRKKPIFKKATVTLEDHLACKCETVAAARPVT

Binder	Kd [1] [pM]	kon [1] [M⁻¹ s⁻¹]	Kd [2] [pM]	kon [2] [M⁻¹ s⁻¹]
9E8.4E-GS-9A8.12 (PR-1578137) (bispecific antibody, human IgG1, kappa, L234A L235A, DVD-Ig: outer hBDI-9E8.4E (PDGF), inner hBEW-9A8.12 (VEGF), linkers GS-H10/GS-L10; Human IgG1 L234A, L235A, H435A with kappa) heavy: EVTLRESGPALVKPTQTLTLTCTFSGFSLSTYGMGVGWIRQPPGKALEWLANIWWDDDKYYNPSLKNRLTISKDTSKNQVVLTMTNMDPVDTATYYCARIESIGTTYSFDYWGQGTMVTVSSGGGGSGGGGSEVQLVQSGAEVKKPGASVKVSCKASGYTFTNYGMYWVRQAPGQGLEWMGWINTETGKPIYADDFKGRVTMTTDTSTSTAYMELRSLRSDDTAVYYCARVDYDGSFWFAYWGQGTLVTVSSASTKGPSVFPLAPSSKSTSGGTAALGCLVKDYFPEPVTVSWNSGALTSGVHTFPAVLQSSGLYSLSSVVTVPSSSLGTQTYICNVNHKPSNTKVDKKVEPKSCDKTHTCPPCPAPEAAGGPSVFLFPPKPKDTLMISRTPEVTCVVVDVSHEDPEVKFNWYVDGVEVHNAKTKPREEQYNSTYRVVSVLTVLHQDWLNGKEYKCKVSNKALPAPIEKTISKAKGQPREPQVYTLPPSREEMTKNQVSLTCLVKGFYPSDIAVEWESNGQPENNYKTTPPVLDSDGSFFLYSKLTVDKSRWQQGNVFSCSVMHEALHNAYTQKSLSLSPGK light: EFVLTQSPGTLSLSPGERATLSCERSSGDIGESYVSWYQQKPGQAPRLVIYADDQRPSGIPDRFSGSGSGTDFTLTISRLEPEDFAVYYCQSYDINIDIVFGGGTKVEIKRGGSGGGGSGDTQLTQSPSSLSASVGDRVTITCRASESVSTVIHWYQQKPGKQPKLLIHGASNLESGVPSRFSGSGSGTDFTLTISSLQPEDFATYFCQQHWNDPPTFGQGTKLEIKRTVAAPSVFIFPPSDEQLKSGTASVVCLLNNFYPREAKVQWKVDNALQSGNSQESVTEQDSKDSTYSLSSTLTLSKADYEKHKVYACEVTHQGLSSPVTKSFNRGEC	8.8	5e+07	380	470000
CL-34565_GS_CL-33675 (PR-1613183) (bispecific antibody, human IgG1, kappa, L234A L235A, DVD-Ig: outer CL-34565 (VEGF), inner CL-33675 (PDGF), linkers GS-H10/GS-L10(dR); Human IgG1 L234A, L235A, H435A with kappa) heavy: EVQLVQSGSELKKPGASVKVSCKASGYTFTDYGMYWVRQAPGQGLEWMGWIDTETGDPTYADDFKGRFVFSLDTSVSTAYLQISSLKAEDTAVYYCARTNYYYRNYMFYFDYWGQGTMVTVSSGGGGSGGGGSEVTLRESGPALVKPTQTLTLTCTFSGFSLSTYGMGVGWIRQPPGKALEWLANIWWDDDKYYNPSLKNRLTISKDTSKNQVVLTMTNMDPVDTATYYCARIESSGPKYSFDYWGQGTMVTVSSASTKGPSVFPLAPSSKSTSGGTAALGCLVKDYFPEPVTVSWNSGALTSGVHTFPAVLQSSGLYSLSSVVTVPSSSLGTQTYICNVNHKPSNTKVDKKVEPKSCDKTHTCPPCPAPEAAGGPSVFLFPPKPKDTLMISRTPEVTCVVVDVSHEDPEVKFNWYVDGVEVHNAKTKPREEQYNSTYRVVSVLTVLHQDWLNGKEYKCKVSNKALPAPIEKTISKAKGQPREPQVYTLPPSREEMTKNQVSLTCLVKGFYPSDIAVEWESNGQPENNYKTTPPVLDSDGSFFLYSKLTVDKSRWQQGNVFSCSVMHEALHNAYTQKSLSLSPGK light: EIVLTQSPATLSLSPGERATLFCRASQSVSNHMHWYQQKPGQAPRLLIYGASILESGVPARFSGSGSGTDFTLTISSLEPEDFAVYYCQQSWYDPITFGQGTKLEIKGGSGGGGSGGEIVLTQSPGTLSLSPGERATLSCRASSGSIWYSFVSWYQQKPGQAPRLLIYADDQRASGIPDRFSGSGSGTDFTLTISRLEPEDFAVYYCQSYGINIDVVFGGGTKVEIKRTVAAPSVFIFPPSDEQLKSGTASVVCLLNNFYPREAKVQWKVDNALQSGNSQESVTEQDSKDSTYSLSSTLTLSKADYEKHKVYACEVTHQGLSSPVTKSFNRGEC	0.19	6e+07	1.7	1.2e+07
4G8.5_GS_CL-33675 (PR-1611291) (bispecific antibody, human IgG1, kappa, L234A L235A, DVD-Ig: outer hBDB-4G8.5 (VEGF), inner CL-33675 (PDGF), linkers GS-H10/GS-L10(dR); Human IgG1 L234A, L235A, H435A with kappa) heavy: EIQLVQSGSELKKPGASVKVSCKASGYTFTNYGMYWVRQAPGQGLEYMGWINTETGKPTYADDFKGRFVFSLDTSVSTAYLQISSLKAEDTAVYFCARTNYYYRSYIFYFDYWGQGTMVTVSSGGGGSGGGGSEVTLRESGPALVKPTQTLTLTCTFSGFSLSTYGMGVGWIRQPPGKALEWLANIWWDDDKYYNPSLKNRLTISKDTSKNQVVLTMTNMDPVDTATYYCARIESSGPKYSFDYWGQGTMVTVSSASTKGPSVFPLAPSSKSTSGGTAALGCLVKDYFPEPVTVSWNSGALTSGVHTFPAVLQSSGLYSLSSVVTVPSSSLGTQTYICNVNHKPSNTKVDKKVEPKSCDKTHTCPPCPAPEAAGGPSVFLFPPKPKDTLMISRTPEVTCVVVDVSHEDPEVKFNWYVDGVEVHNAKTKPREEQYNSTYRVVSVLTVLHQDWLNGKEYKCKVSNKALPAPIEKTISKAKGQPREPQVYTLPPSREEMTKNQVSLTCLVKGFYPSDIAVEWESNGQPENNYKTTPPVLDSDGSFFLYSKLTVDKSRWQQGNVFSCSVMHEALHNAYTQKSLSLSPGK light: ATQLTQSPSLSASVGDRVTITCRASESVSTHMHWYQQKPGKQPKLLIYGASNLESGVPSRFSGSGSGTDFTLTISSLQPEDFATYFCQQSWNDPFTFGQGTKLEIKGGSGGGGSGGEIVLTQSPGTLSLSPGERATLSCRASSGSIWYSFVSWYQQKPGQAPRLLIYADDQRASGIPDRFSGSGSGTDFTLTISRLEPEDFAVYYCQSYGINIDVVFGGGTKVEIKRTVAAPSVFIFPPSDEQLKSGTASVVCLLNNFYPREAKVQWKVDNALQSGNSQESVTEQDSKDSTYSLSSTLTLSKADYEKHKVYACEVTHQGLSSPVTKSFNRGEC	0.74	1.6e+07	6.6	4.7e+06
CL-34565_GS_9E8.4 (PR-1613184) (bispecific antibody, human IgG1, kappa, L234A L235A, DVD-Ig: outer CL-34565 (VEGF), inner hBDI-9E8.4 (PDGF), linkers GS-H10/GS-L10(dR); Human IgG1 L234A, L235A, H435A with kappa) heavy: EVQLVQSGSELKKPGASVKVSCKASGYTFTDYGMYWVRQAPGQGLEWMGWIDTETGDPTYADDFKGRFVFSLDTSVSTAYLQISSLKAEDTAVYYCARTNYYYRNYMFYFDYWGQGTMVTVSSGGGGSGGGGSEVTLRESGPALVKPTQTLTLTCTFSGFSLSTYGMGVGWIRQPPGKALEWLANIWWDDDKYYNPSLKNRLTISKDTSKNQVVLTMTNMDPVDTATYYCARIESIGTTYSFDYWGQGTMVTVSSASTKGPSVFPLAPSSKSTSGGTAALGCLVKDYFPEPVTVSWNSGALTSGVHTFPAVLQSSGLYSLSSVVTVPSSSLGTQTYICNVNHKPSNTKVDKKVEPKSCDKTHTCPPCPAPEAAGGPSVFLFPPKPKDTLMISRTPEVTCVVVDVSHEDPEVKFNWYVDGVEVHNAKTKPREEQYNSTYRVVSVLTVLHQDWLNGKEYKCKVSNKALPAPIEKTISKAKGQPREPQVYTLPPSREEMTKNQVSLTCLVKGFYPSDIAVEWESNGQPENNYKTTPPVLDSDGSFFLYSKLTVDKSRWQQGNVFSCSVMHEALHNAYTQKSLSLSPGK light: EIVLTQSPATLSLSPGERATLFCRASQSVSNHMHWYQQKPGQAPRLLIYGASILESGVPARFSGSGSGTDFTLTISSLEPEDFAVYYCQQSWYDPITFGQGTKLEIKGGSGGGGSGGEFVLTQSPGTLSLSPGERATLSCERSSGDIGDSYVSWYQQKPGQAPRLVIYADDQRPSGIPDRFSGSGSGTDFTLTISRLEPEDFAVYYCQSYDINIDIVFGGGTKVEIKRTVAAPSVFIFPPSDEQLKSGTASVVCLLNNFYPREAKVQWKVDNALQSGNSQESVTEQDSKDSTYSLSSTLTLSKADYEKHKVYACEVTHQGLSSPVTKSFNRGEC	5.4	3.5e+07	1.1	1.5e+07
4G8.5_GS_9E8.4 (PR-1612489) (bispecific antibody, human IgG1, kappa, L234A L235A, DVD-Ig: outer hBDB-4G8.5 (VEGF), inner hBDI-9E8.4 (PDGF), linkers GS-H10/GS-L10(dR); Human IgG1 L234A, L235A, H435A with kappa) heavy: EIQLVQSGSELKKPGASVKVSCKASGYTFTNYGMYWVRQAPGQGLEYMGWINTETGKPTYADDFKGRFVFSLDTSVSTAYLQISSLKAEDTAVYFCARTNYYYRSYIFYFDYWGQGTMVTVSSGGGGSGGGGSEVTLRESGPALVKPTQTLTLTCTFSGFSLSTYGMGVGWIRQPPGKALEWLANIWWDDDKYYNPSLKNRLTISKDTSKNQVVLTMTNMDPVDTATYYCARIESIGTTYSFDYWGQGTMVTVSSASTKGPSVFPLAPSSKSTSGGTAALGCLVKDYFPEPVTVSWNSGALTSGVHTFPAVLQSSGLYSLSSVVTVPSSSLGTQTYICNVNHKPSNTKVDKKVEPKSCDKTHTCPPCPAPEAAGGPSVFLFPPKPKDTLMISRTPEVTCVVVDVSHEDPEVKFNWYVDGVEVHNAKTKPREEQYNSTYRVVSVLTVLHQDWLNGKEYKCKVSNKALPAPIEKTISKAKGQPREPQVYTLPPSREEMTKNQVSLTCLVKGFYPSDIAVEWESNGQPENNYKTTPPVLDSDGSFFLYSKLTVDKSRWQQGNVFSCSVMHEALHNAYTQKSLSLSPGK light: ATQLTQSPSLSASVGDRVTITCRASESVSTHMHWYQQKPGKQPKLLIYGASNLESGVPSRFSGSGSGTDFTLTISSLQPEDFATYFCQQSWNDPFTFGQGTKLEIKGGSGGGGSGGEFVLTQSPGTLSLSPGERATLSCERSSGDIGDSYVSWYQQKPGQAPRLVIYADDQRPSGIPDRFSGSGSGTDFTLTISRLEPEDFAVYYCQSYDINIDIVFGGGTKVEIKRTVAAPSVFIFPPSDEQLKSGTASVVCLLNNFYPREAKVQWKVDNALQSGNSQESVTEQDSKDSTYSLSSTLTLSKADYEKHKVYACEVTHQGLSSPVTKSFNRGEC	28	5.8e+06	8.5	5.4e+06
CL-34565_GS_3E2.1 (PR-1613185) (bispecific antibody, human IgG1, kappa, L234A L235A, DVD-Ig: outer CL-34565 (VEGF), inner hBFU-3E2.1 (PDGF), linkers GS-H10/GS-L10(dR); Human IgG1 L234A, L235A, H435A with kappa) heavy: EVQLVQSGSELKKPGASVKVSCKASGYTFTDYGMYWVRQAPGQGLEWMGWIDTETGDPTYADDFKGRFVFSLDTSVSTAYLQISSLKAEDTAVYYCARTNYYYRNYMFYFDYWGQGTMVTVSSGGGGSGGGGSEVQLVQSGAEVKKPGSSVKVSCKASGYTFTESYMYWVKQAPGQGLELIGRIDPEDGSTDYVEKFKNKATLTADKSTSTAYMELSSLRSEDTAVYFCARFGARSYFYPMDAWGQGTTVTVSSASTKGPSVFPLAPSSKSTSGGTAALGCLVKDYFPEPVTVSWNSGALTSGVHTFPAVLQSSGLYSLSSVVTVPSSSLGTQTYICNVNHKPSNTKVDKKVEPKSCDKTHTCPPCPAPEAAGGPSVFLFPPKPKDTLMISRTPEVTCVVVDVSHEDPEVKFNWYVDGVEVHNAKTKPREEQYNSTYRVVSVLTVLHQDWLNGKEYKCKVSNKALPAPIEKTISKAKGQPREPQVYTLPPSREEMTKNQVSLTCLVKGFYPSDIAVEWESNGQPENNYKTTPPVLDSDGSFFLYSKLTVDKSRWQQGNVFSCSVMHEALHNAYTQKSLSLSPGK light: EIVLTQSPATLSLSPGERATLFCRASQSVSNHMHWYQQKPGQAPRLLIYGASILESGVPARFSGSGSGTDFTLTISSLEPEDFAVYYCQQSWYDPITFGQGTKLEIKGGSGGGGSGGETVLTQSPATLSLSPGERATLSCRASESVSTLMHWYQQKPGQQPRLLIYGASNLESGVPARFSGSGSGTDFTLTISSLEPEDFAVYFCQQSWNDPWTFGGGTKVEIKRTVAAPSVFIFPPSDEQLKSGTASVVCLLNNFYPREAKVQWKVDNALQSGNSQESVTEQDSKDSTYSLSSTLTLSKADYEKHKVYACEVTHQGLSSPVTKSFNRGEC	12	4.5e+07	1.4	1.2e+07
